Measured values taken from paper PMC5278647 (Biochemistry, 2016).

Target: T1, his-tagged F110A variant of human ferrochelatase (FECH), recombinant from E. coli (human, UniProt P22830 55-423, F110A)
T1 sequence (looked up): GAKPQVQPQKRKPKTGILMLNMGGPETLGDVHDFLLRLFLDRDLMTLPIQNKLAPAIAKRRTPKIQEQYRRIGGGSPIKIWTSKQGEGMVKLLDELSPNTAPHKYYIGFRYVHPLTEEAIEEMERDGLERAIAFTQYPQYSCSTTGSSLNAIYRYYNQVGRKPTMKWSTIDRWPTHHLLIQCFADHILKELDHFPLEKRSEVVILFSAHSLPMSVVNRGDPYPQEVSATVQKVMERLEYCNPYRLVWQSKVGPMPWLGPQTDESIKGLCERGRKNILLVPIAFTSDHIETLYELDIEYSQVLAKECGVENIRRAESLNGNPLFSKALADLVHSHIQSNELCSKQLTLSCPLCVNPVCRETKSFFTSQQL
Assay: pull-down

fold of PGRMC1 recovered (against wild-type FECH): > 2 fold
B1: non-tagged full length human PGRMC1, recombinant from E. coli (natural protein)
chain: not shown
